Like-named read-outs stand apart in the source and are kept apart here.
T1: CCL3_HUMAN (Homo sapiens, UniProt P10147)
T1 sequence (P10147 24-92): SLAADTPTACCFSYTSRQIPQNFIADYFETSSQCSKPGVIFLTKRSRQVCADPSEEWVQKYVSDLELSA

T2: CCL8_HUMAN (Homo sapiens, UniProt P80075)
T2 sequence (P80075 24-99): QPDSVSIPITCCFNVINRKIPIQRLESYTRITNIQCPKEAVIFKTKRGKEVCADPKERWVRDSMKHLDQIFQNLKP

T3: CCL14_HUMAN (Homo sapiens, UniProt Q16627)
T3 sequence (Q16627 20-93): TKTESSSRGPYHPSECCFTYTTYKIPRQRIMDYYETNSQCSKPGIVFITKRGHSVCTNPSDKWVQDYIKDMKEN

T4: CCL16_HUMAN (Homo sapiens, UniProt O15467)
T4 sequence (O15467 24-120): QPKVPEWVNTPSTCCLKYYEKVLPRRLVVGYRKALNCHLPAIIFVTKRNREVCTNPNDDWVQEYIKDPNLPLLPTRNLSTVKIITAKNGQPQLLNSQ

T5: CCL15_HUMAN (Homo sapiens, UniProt Q16663)
T5 sequence (Q16663 22-113): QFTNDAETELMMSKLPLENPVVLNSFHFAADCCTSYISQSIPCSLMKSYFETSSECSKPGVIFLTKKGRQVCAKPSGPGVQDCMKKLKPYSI

T6: CCL24_HUMAN (Homo sapiens, UniProt O00175)
T6 sequence (O00175 27-119): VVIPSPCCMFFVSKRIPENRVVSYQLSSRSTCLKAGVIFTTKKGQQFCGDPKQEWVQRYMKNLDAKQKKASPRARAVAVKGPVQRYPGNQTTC

B1: P672_RHIPU: tick CKBP, Rhipicephalus pulchellus (protein, listed as Rhipicephalus pulchellus)
chain: VCEVSEQEGVGEDNATEDEDYEDFFKPVTCYFANSTVGPLRPPNCTVVCTNNTAWWNDTKSDGGHCYSEYRPEKRTHSREIYNCTIGVCGNGTCIANHTYADCW
B2: P1243_AMBAM: tick CKBP, Amblyomma americanum; AAM-02 stated identical (protein, listed as Amblyomma americanum)
chain: RNHTEDNSTEYYDYEEARCACPARHLNNTNGTVLKLLGCHYFCNGTLCTAPDGYPCYNLTAQQVRTLTTYPNTSCAVGVCMKGTCVKNGTMEQCFKTP
B3: EVASIN4: previously described tick CKBP evasin 4, from Rhipicephalus sanguineus (protein, listed as Rhipicephalus sanguineus)
chain: EVPQMTSSSAPDLEEEDDYTAYAPLTCYFTNSTLGLLAPPNCSVLCNSTTTWFNETSPNNASCLLTVDFLTQDAILQENQPYNCSVGHCDNGTCAGPPRHAQCW

Tests used:
CCL3_HUMAN = biological target: T1, CCL3_HUMAN; assay: Biolayer interferometry (BLI) binding
Method in brief: (§1)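 Kd (M) came from curve fits to association, equilibrium and dissociation phases. Purified His-tagged tick evasin was immobilised on Ni-NTA biosensors; chemokines binding in a 300 nM cross-screen were then tested at a range of concentrations.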

CCL3L1_HUMAN = CCL3L1_HUMAN (Homo sapiens, UniProt P16619); assay: Biolayer interferometry (BLI) binding
Sequence of CCL3L1_HUMAN (P16619 24-93): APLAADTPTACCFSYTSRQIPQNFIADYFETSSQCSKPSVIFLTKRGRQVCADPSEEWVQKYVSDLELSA
Method in brief: as §1

CCL8_HUMAN = biological target: T2, CCL8_HUMAN; assay: Biolayer interferometry (BLI) binding
Method in brief: as §1

CCL14_HUMAN = biological target: T3, CCL14_HUMAN; assay: Biolayer interferometry (BLI) binding
Method in brief: as §1

CCL16_HUMAN [1] = biological target: T4, CCL16_HUMAN; assay: Biolayer interferometry (BLI) binding
Method in brief: as §1

CCL15_HUMAN [2] = biological target: T5, CCL15_HUMAN; assay: Biolayer interferometry (BLI) binding
Method in brief: as §1

CCL7_HUMAN = CCL7_HUMAN (Homo sapiens, UniProt P80098); assay: Biolayer interferometry (BLI) binding
Sequence of CCL7_HUMAN (P80098 24-99): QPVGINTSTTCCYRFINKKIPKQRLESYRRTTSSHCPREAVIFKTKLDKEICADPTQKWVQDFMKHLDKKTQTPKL
Method in brief: as §1

CCL15_HUMAN [3] = biological target: T5, CCL15_HUMAN; settings: read-out: Kd, CCL15_HUMAN, previously described evasins; data obtained from publications [20-22,32]; cited from earlier work
CCL24_HUMAN = biological target: T6, CCL24_HUMAN; settings: read-out: Kd, CCL24_HUMAN, previously described evasins; data obtained from publications [20-22,32]; cited from earlier work
CCL16_HUMAN [4] = biological target: T4, CCL16_HUMAN; settings: read-out: Kd, CCL16_HUMAN, previously described evasins; data obtained from publications [20-22,32]; cited from earlier work

Row | Molecule | Kd (CCL3_HUMAN) | Kd (CCL3L1_HUMAN) | Kd (CCL8_HUMAN; read-out: Kd for CCL8) | Kd (CCL14_HUMAN) | Kd (CCL16_HUMAN [1]) | Kd (CCL15_HUMAN [2]) | Kd (CCL7_HUMAN) | Kd (CCL8_HUMAN; read-out: Kd, CCL8_HUMAN) | Kd (CCL15_HUMAN [3]) | Kd (CCL24_HUMAN) | Kd (CCL16_HUMAN [4])
1 | B1 | 2.6 nM | 2.7 nM | 3.7 nM | 5.5 nM | 3.3 nM | 32 nM | 16 nM |  |  |  | 
2 | B2 | 5.3 nM | 5.05 nM |  | 0.816 nM | 0.926 nM | 9.61 nM | 8.66 nM | 21.9 nM |  |  | 
3 | B3 |  |  |  |  |  |  |  |  | 2.31 nM | 0.41 nM | 0.26 nM

Reference: patent US20200247855A1, “THERAPY AND DIAGNOSTICS” (OXFORD UNIVERSITY INNOVATION LIMITED, priority 2017, published 2020)
